Reference: patent US20150368327A1 (YOKOHAMA CITY UNIVERSITY, published 2015)

What was measured:
mouse Sema 3A protein = target: T1, mouse Sema 3A protein (mouse, UniProt O08665 21-772, limits assumed); experiment: antigen solid phase ELISA: coated mouse Sema 3A (2.5 µg/mL), anti-mouse IgG2A-HRP, OD450
T1 construct: Produced from mouse Sema 3A protein expressing cells; also called Mouse Sema 3A antigen
T1 sequence (looked up): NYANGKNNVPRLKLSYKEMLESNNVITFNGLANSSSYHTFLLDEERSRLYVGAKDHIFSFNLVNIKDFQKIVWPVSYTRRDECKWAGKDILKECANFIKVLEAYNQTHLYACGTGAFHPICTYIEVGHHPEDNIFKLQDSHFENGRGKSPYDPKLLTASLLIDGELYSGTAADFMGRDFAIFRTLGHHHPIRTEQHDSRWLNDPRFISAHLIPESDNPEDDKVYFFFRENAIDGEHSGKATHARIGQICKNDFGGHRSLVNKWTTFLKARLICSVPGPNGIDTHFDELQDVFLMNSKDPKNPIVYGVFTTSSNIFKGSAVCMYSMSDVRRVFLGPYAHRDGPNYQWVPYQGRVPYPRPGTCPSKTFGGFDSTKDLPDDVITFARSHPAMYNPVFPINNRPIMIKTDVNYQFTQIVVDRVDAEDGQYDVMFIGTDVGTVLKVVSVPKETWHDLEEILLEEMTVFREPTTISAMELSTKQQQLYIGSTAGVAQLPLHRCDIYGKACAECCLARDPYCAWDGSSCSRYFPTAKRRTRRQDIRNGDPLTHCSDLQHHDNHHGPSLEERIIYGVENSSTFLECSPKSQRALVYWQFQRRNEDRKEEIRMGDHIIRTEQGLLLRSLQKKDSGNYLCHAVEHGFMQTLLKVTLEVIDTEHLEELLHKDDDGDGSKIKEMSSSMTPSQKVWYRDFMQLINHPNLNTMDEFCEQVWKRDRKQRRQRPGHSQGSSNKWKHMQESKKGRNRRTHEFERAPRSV
Description: The antigen specificity of the purified antibody was measured by ELISA with PBS buffer. 2.5 μg/mL of antigen was dispensed to a 96 well Maxi Sorp Plate (Nunc) and reacted overnight at 4° C. to coat the plate with an antigen (mouse Sema 3A protein). Ovalbumin, rabbit IgG and skim milk were immobilized in the plate as negative controls in similar manner in order to examine specificity of antibodies. The next day, the plate was washed three times with 200 μL/well of washing solution (PBS containing 0.05% Tween 20), to which was added 200 μL/well of blocking solution (PBS containing 0.5% skim milk) and the mixture was reacted for 30 minutes. The plate was washed three times with 200 μL/well of washing solution, to which was added 100 μL of culture supernatant containing antibody and the mixture was reacted for one hour. The plate was washed five times with 200 μL/well of washing solution, to which was added 100 μL/well of diluent in which anti-mouse IgG2A goat antibody labeled with horseradish peroxidase (HRP) (Bethyl Laboratories, Inc.) was diluted 2000 times with PBS buffer and the mixture was reacted for one hour. […] The absorbance was measured at 450 nm using μQuantBiomolecular Spectrometer (Bio Tek Instruments, Inc.) Results are shown in FIG. 2.

[1] = target: bovine serum albumin (BSA) (bovine, UniProt P02769 25-607); experiment: antigen solid phase ELISA: coated BSA, anti-mouse IgG2A-HRP, A450
Chain of bovine serum albumin (BSA) (P02769 25-607 limits assumed): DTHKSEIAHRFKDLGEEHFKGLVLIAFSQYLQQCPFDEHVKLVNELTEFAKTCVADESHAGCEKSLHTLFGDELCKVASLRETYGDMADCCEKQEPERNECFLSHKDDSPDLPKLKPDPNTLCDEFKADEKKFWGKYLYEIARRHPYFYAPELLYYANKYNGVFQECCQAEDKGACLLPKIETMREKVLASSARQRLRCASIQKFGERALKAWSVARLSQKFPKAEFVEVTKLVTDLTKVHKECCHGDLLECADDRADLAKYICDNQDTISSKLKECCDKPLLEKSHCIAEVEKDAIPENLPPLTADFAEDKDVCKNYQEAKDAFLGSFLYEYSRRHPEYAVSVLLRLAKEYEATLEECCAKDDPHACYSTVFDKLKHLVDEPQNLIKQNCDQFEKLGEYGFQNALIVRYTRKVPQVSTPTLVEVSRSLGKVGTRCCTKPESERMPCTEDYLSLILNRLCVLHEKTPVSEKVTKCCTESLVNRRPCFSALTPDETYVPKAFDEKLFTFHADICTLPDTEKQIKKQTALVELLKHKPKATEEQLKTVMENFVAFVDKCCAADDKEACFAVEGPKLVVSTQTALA
Description: The obtained avian-mouse chimeric antibody in Example 1 and the obtained humanized antibodies (Humanized-1 and Humanized-2) and avian-human chimeric antibody in Example 2 were measured for antigenic specificity by antigen solid phase ELISA with PBS buffer. The obtained avian-mouse chimeric antibody in Example 1, which was labeled with biotin, was also measured for antigenic specificity. CL18M (+) avian-mouse chimeric antibody, which served as a negative control, was also measured for antigenic specificity. Particular measurement conditions were as follows.
Firstly, 2.5 μg/mL of antigen (mouse and human Sema 3A protein) was dispensed into a 384 Well MaxiSorp Plate (Nunc) and reacted overnight at 4° C. in order to coat the plate with the antigen. Otherwise, ovalbumin (OVA) and bovine serum albumin (BSA) were immobilized in the plate as negative controls in similar manner in order to examine specificity of antibodies. After reaction, the plate was washed three times with 50 μL/well of washing solution (PBS containing 0.05% Tween 20), to which was added 25 μL/well of blocking solution (PBS buffer containing 1% bovine serum albumin), and the mixture was reacted for 30 minutes. […] The absorbance was measured at 450 nm using Infinite M1000 (Tecan Trading AG).

B1: Anti-Sema 3A avian-mouse chimeric antibody (clone No. 4-2-derived) (antibody, mouse IgG2a)
heavy: AVTLDESGGGLQTPGGALSLVCKASGFTFSSYPMGWVRQAPGKGLEWVAGIDDDGDSDTRYAPAVKGRATISRDNGQSTVRLQLNNLRAEDTGTYYCAKHTGIGANSAGSIDAWGHGTEVIVSSAKTTAPSVYPLAPVCGDTTGSSVTLGCLVKGYFPEPVTLTWNSGSLSSGVHTFPAVLQSDLYTLSSSVTVTSSTWPSQSITCNVAHPASSTKVDKKIEPRGPTIKPCPPCKCPAPNLLGGPSVFIFPPKIKDVLMISLSPIVTCVVVDVSEDDPDVQISWFVNNVEVHTAQTQTHREDYNSTLRVVSALPIQHQDWMSGKEFKCKVNNKDLPAPIERTISKPKGSVRAPQVYVLPPPEEEMTKKQVTLTCMVTDFMPEDIYVEWTNNGKTELNYKNTEPVLDSDGSYFMYSKLRVEKKNWVERNSYSCSVVHEGLHNHHTTKSFSRTPGK
light: ALTQPASVSANLGGTVKITCSGGGSYTGSYYYGWYQQKSPGSALVTMIYYNNKRPSDIPSRFSGSLSGSTNTLTITGVRADDEAVYFCGSADNSGDAFGAGTTLTVLGQPKSSPSVTLFPPSSEELETNKATLVCTITDFYPGVVTVDWKVDGTPVTQGMETTQPSKQSNNKYMASSYLTLTARAWERHSSYSCQVTHEGHTVEKSLSRADCS
notes: Avian variable regions of clone No. 4-2 with mouse IgG2a heavy and mouse lambda light constant regions; also called anti-Sema 3A avian-mouse chimeric antibody (IgG)
- EC50 (read off the curve) (mouse Sema 3A protein): ~0.01 µg/mL
- binding result [1]: no binding (tested: about 2 µg/mL)
